Source: article PMC6685058 (2019)

B1: AD-CEBP-1(aa 1–319) FL [C. elegans] / BD-IMA-3(aa 278–514) [C. elegans] (parent complex)
chain 1: MYSKLNYSHQKGDQALKHPHLVRLQQSEVRGFTDMPNNGASTSSAGSFARQDSLTIAASLQQRDRERHPVDFMETELDLGDYLQVLHDLDVPTDNVDFDDAELQKCNILYDGEHPYEQPELNGYERHVAYGTGYRVPGDYDQDGYKMNCEVKAETPDFGATKTRRAVKRPVPYDDYQKEYSEESSDMTDNDGSVDDSYFEPKSKKTKSAGLENFKPQTRARKYKLKADEEKAEPTYKLKRARNNDAVRKSRKKAKELQDKKEAEHDKMKRRIAELEGLLQSERDARRRDQDTLEQLLRNKGPMKEQRMPQRHILENFNK
chain 2: VVTHLVPLLGHVDVKVQTAALRAVGNIVTGTDEQTQLVLDSGVLRFMPGLLAHYKEKINKEAVWFVSNITAGNQQQVQDVFDAGIMPMIIHLLDRGDFPTQKEAAWAISNVTISGRPNQVEQMVKLGVLRPFCAMLSCTDSQIIQVVLDGINNILKMAGEAAEQVTSEIEECGGLDKIENLQNHENEDIYKLAFEIIDNFFSSDDETGNVEGAQSSAFGGDVPPVPDAPNGGWNFGK

Variants of: B1
Experiment: yeast two-hybrid, β-galactosidase activity; parent: 110; read off a plot
Work on chain 1 MYSKLNYSHQKGDQALKHPHLVRLQQSEVRGFTDMPNNGASTSSAGSFARQDSLTIAASLQQRDRERHPVDFMETELDLGDYLQVLHDLDVPTDNVDFDDAELQKCNILYDGEHPYEQPELNGYERHVAYGTGYRVPGDYDQDGYKMNCEVKAETPDFGATKTRRAVKRPVPYDDYQKEYSEESSDMTDNDGSVDDSYFEPKSKKTKSAGLENFKPQTRARKYKLKADEEKAEPTYKLAAARNNDAVRKSRKKAKELQDKKEAEHDKMKRRIAELEGLLQSERDARRRDQDTLEQLLRNKGPMKEQRMPQRHILENFNK [chain 1 K239A, chain 1 R240A] yielded a response of about 190 Miller units.
For chain 1 MYSKLNYSHQKGDQALKHPHLVRLQQSEVRGFTDMPNNGASTSSAGSFARQDSLTIAASLQQRDRERHPVDFMETELDLGDYLQVLHDLDVPTDNVDFDDAELQKCNILYDGEHPYEQPELNGYERHVAYGTGYRVPGDYDQDGYKMNCEVKAETPDFGATATARAVAAPVPYDDYQKEYSEESSDMTDNDGSVDDSYFEPKSKKTKSAGLENFKPQTRARKYKLKADEEKAEPTYKLKRARNNDAVRKSRKKAKELQDKKEAEHDKMKRRIAELEGLLQSERDARRRDQDTLEQLLRNKGPMKEQRMPQRHILENFNK [chain 1 K162A, chain 1 R164A, chain 1 K168A, chain 1 R169A], the response was about 17 Miller units.
chain 1 MYSKLNYSHQKGDQALKHPHLVRLQQSEVRGFTDMPNNGASTSSAGSFARQDSLTIAASLQQRDRERHPVDFMETELDLGDYLQVLHDLDVPTDNVDFDDAELQKCNILYDGEHPYEQPELNGYERHVAYGTGYRVPGDYDQDGYKMNCEVKAETPDFGATKTRRAVKRPVPYDDYQKEYSEESSDMTDNDGSVDDSYFEPKSAATASAGLENFKPQTRARKYKLKADEEKAEPTYKLKRARNNDAVRKSRKKAKELQDKKEAEHDKMKRRIAELEGLLQSERDARRRDQDTLEQLLRNKGPMKEQRMPQRHILENFNK [chain 1 K204A, chain 1 K205A, chain 1 K207A] gave a response of about 110 Miller units.
